Source: paper PMC3340929

biological target: NFS1–ISD11–ISCU2 protein complex (SDU) (human) (UniProt Q9HD34); test: enzyme activity titration

| Substance | Kd [µM] |
| --- | --- |
| FXN N146A variant (from UniProt Q16595 82-210) (natural protein) | 1.35 |
| FXN N146K variant (FRDA missense mutation) (from UniProt Q16595 82-210) (natural protein) | 6.25 |
| FXN Q148G variant (from UniProt Q16595 82-210) (natural protein) | 2.17 |
| FXN Q148R variant (FRDA missense mutation) (from UniProt Q16595 82-210) (natural protein) | 0.85 |
| FXN Q153A variant (from UniProt Q16595 82-210) (natural protein) | 7.5 |
| FXN R165C variant (FRDA missense mutation) (from UniProt Q16595 82-210) (natural protein) | 10.4 |
